From paper PMC314469, “Protein Interaction Networks by Proteome Peptide Scanning” (PLoS Biology, 2004)

Experiments:
Experiment in all cases: SPOT array
[1] = molecular target: T1, Boi2 SH3 (BOI2_YEAST), P39969
T1 chain: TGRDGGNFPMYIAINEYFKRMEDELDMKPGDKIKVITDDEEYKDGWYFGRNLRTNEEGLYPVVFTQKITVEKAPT

[2] = molecular target: T2, Yfr024 SH3 (LSB3_YEAST), P43603
T2 chain: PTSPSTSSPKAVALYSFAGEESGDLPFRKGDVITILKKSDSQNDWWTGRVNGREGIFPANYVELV

[3] = molecular target: Sho1 SH3 (SHO1_YEAST), P40073
[4] = molecular target: T3, Myo5 SH3 (MYO5_YEAST), Q04439
T3 chain: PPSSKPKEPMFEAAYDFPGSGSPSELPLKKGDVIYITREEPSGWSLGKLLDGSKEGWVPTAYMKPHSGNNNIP

[5] = molecular target: T4, Yhr016c SH3 (YSC84_YEAST), P32793
T4 chain: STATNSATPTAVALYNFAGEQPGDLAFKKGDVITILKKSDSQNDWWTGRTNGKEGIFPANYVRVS

[6] = molecular target: T5, Boi1 SH3 (BOI1_YEAST), P38041
T5 chain: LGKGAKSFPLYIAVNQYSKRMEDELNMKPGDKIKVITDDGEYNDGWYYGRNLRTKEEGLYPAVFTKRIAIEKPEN

[7] = molecular target: T6, Rvs167 SH3 (RV167_YEAST), P39743
T6 chain: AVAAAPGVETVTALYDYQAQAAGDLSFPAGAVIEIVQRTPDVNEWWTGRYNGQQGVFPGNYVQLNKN

Sequence of Sho1 SH3 (SHO1_YEAST), P40073 (P40073 295-366): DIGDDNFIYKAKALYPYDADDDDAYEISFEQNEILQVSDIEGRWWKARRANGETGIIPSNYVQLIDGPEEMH

Binder	normalised SPOT signal, Boehringer light units (BLU); mean over the file's lines of this peptide [1]	normalised SPOT signal, Boehringer light units (BLU); mean over the file's lines of this peptide [2]	normalised SPOT signal, Boehringer light units (BLU); mean over the file's lines of this peptide [3]	normalised SPOT signal, Boehringer light units (BLU); mean over the file's lines of this peptide [4]	normalised SPOT signal, Boehringer light units (BLU); mean over the file's lines of this peptide [5]	normalised SPOT signal, Boehringer light units (BLU); mean over the file's lines of this peptide [6]	normalised SPOT signal, Boehringer light units (BLU); mean over the file's lines of this peptide [7]
STDHRGTPANPGRV [YER163C 43-56]	0	6.2	60.8	257	30.5	26.3	23.6
SYISRKYPRAPAFI [YMR320W 69-82]	32.8	212	50	740	28.8	3080	100
SVDPKNYPDAPLEG [YKL215C 38-51]	24.7	48.2	28.2	91.1	46.1	114	17.6
SSVSKLKPSLPNKL [YPL242C 73-86]	50.5	1380	30.7	418	39.2	332	176
SRYLKDHPNLPTPE [YOR353C 203-216]	0	99.8	94.1	69.2	23.3	208	104
SSKIRPTPRKPSRM [YER118C 4-17]	58.4	9730	144	673	697	982	7920
TDLGKDIPFFPSSE [YDR443C 541-554]	15.6	9.5	48.6	146	13.5	0	59.3
TDLFKPLPEPPTEL [YNL331C 2-15]	23.1	129	14700	23.4	31.5	32.5	18.8
SVSEKTNPSSPSVS [YHR061C 244-257]	29.4	0	111	127	12.6	124	2
TARNKKSPGGPRQR [YLR244C 372-385]	45.9	423	109	593	28.9	273	84
TDTTKVTPIVPVPI [YHR188C 382-395]	-0	11.7	30.2	48	6.5	27.1	24.6
TASGKTSPILPLQN [YBR066C 94-107]	20.8	2.6	0.1	290	5.1	106	35.8
SYMDKIYPDLPNDK [YFL047W 497-510]	22.8	224	138	83	37.2	221	75.3
STNAKKDPFPPPKD [YGR140W 417-430]	0.9	52.1	85	198	26.7	33	39.8
SRVTRKRPREPKST [YBL111C 334-347]	40.5	674	95	829	49.5	794	162
SVNIKSWPLKPSNF [YNL226W 113-126]	0	58.3	49.8	56.5	22.6	76.2	61.7
